Reference: publication PMC5389710 (Nucleic Acids Research, 2016)

Tests used:
Assay in all cases: ITC
[1] = target: Xenopus laevis core histone H3 (X. laevis, UniProt P84233 1-136)
[2] = target: Chicken erythrocyte H3–H4 histone dimer (chicken, UniProt P84229 1-136; P62801 1-103)
[3] = target: Xenopus laevis core histone H2B (X. laevis, UniProt P02281 1-126)

Kd [1]: 20 µM | Kd [2]: 0.4 µM | Kd [3]: 9.6 µM
B1: Arabidopsis thaliana NAP1-related protein 1 (NRP1) (natural protein)
chain: MVADKSKKSKIEEKGEEENLEQIDAELVLSIEKLQEIQDDLEKINEKASDEVLEVEQKYNVIRKPVYDKRNEVIQSIPGFWMTAFLSHPALGDLLTEEDQKIFKYLNSLEVEDAKDVKSGYSITFHFTSNPFFEDAKLTKTFTFLEEGTTKITATPIKWKEGKGLPNGVNHDDKKGNKRALPEESFFTWFTDAQHKEDAGDEIHDEVADIIKEDLWSNPLTYFNNDADEEDFDGDDDGDEEGEEDDDDEEEEDGEE
